B1: pCEP4-1NT8-9CT20 (other)
chain: EDCNELPPRRNTEILTGSWSDQTYPEGTQAIYKCRPGYRSLGNVIMVCRKGEWVALNPLRKCQKRPCGHPGDTPFGTFTLTGGNVFEYGVKAVYTCNEGYQLLGEINYRECDTDGWTNDIPICEVVKCLPVTAPENGKIVSSAMEPDREYHFGQAVRFVCNSGYKIEGDEEMHCSDDGFWSKEKPKCVEISCKSPDVINGSPISQKIIYKENERFQYKCNMGYEYSERGDAVCTESGWRPLPSCEEKSCDNPYIPNGDYSPLRIKHRTGDEITYQCRNGFYPATRGNTAKCTSTGWIPAPRCTLKPCDYPDIKHGGLYHENMRRPYFPVAVGKYYSYYCDEHFETPSGSYWDHIHCTQDGWSPAVPCLRKCYFPYLENGYNQNYGRKFVQGKSIDVACHPGYALPKAQTTVTCMENGWSPTPRCIRVKTCSKSSIDIENGFISESQYTYALKEKAKYQCKLGYVTADGETSGSITCGKDGWSAQPTCIKSGASGCDIPVFMNARTKNDFTWFKLNDTLDYECHDGYESNTGSTTGSIVCGYNGWSDLPICYERECELPKIDVHLVPDRKKDQYKVGEVLKFSCKPGFTIVGPNSVQCYHFGLSPDLPICKEQVQSCGPPPELLNGNVKEKTKEEYGHSEVVEYYCNPRFLMKGPNKIQCVDGEWTTLPVCIVEESTCGDIPELEHGWAQLSSPPYYYGDSVEFNCSESFTMIGHRSITCIHGVWTQLPQCVAIDKLKKCKSSNLIILEEHLKNKKEFDHNSNIRYRCRGKEGWIHTVCINGRWDPEVNCSMAQIQLCPPPPQIPNSHNMTTTLNYRDGEKVSVLCQENYLIQEGEEITCKDGRWQSIPLCVEKIPCSQPPQIEHGTINSSRSSQESYAHGTKLSYTCEGGFRISEENETTCYMGKWSSPPQCEGLPCKSPPEISHGVVAHMSDSYQYGEEVTYKCFEGFGIDGPAIAKCLGEKWSHPPSCIKTDCLSLPSFENAIPMGEKKDVYKAGEQVTYTCATYYKMDGASNVTCINSRWTGRPTCRDTSCVNPPTVQNAYIVSRQMSKYPSGERVRYQCRSPYEMFGDEEVMCLNGNWTEPPQCKDSTGKCGPPPPIDNGDITSFPLSVYAPASSVEYQCQNLYQLEGNKRITCRNGQWSEPPKCLHPCVISREIMENYNIALRWTAKQKLYSRTGESVEFVCKRGYRLSSRSHTLRTTCWDGKLEYPTCAKRGGSGHHHHHH
B2: pCEP4-1NT4-9CT20 (other)
chain: EDCNELPPRRNTEILTGSWSDQTYPEGTQAIYKCRPGYRSLGNVIMVCRKGEWVALNPLRKCQKRPCGHPGDTPFGTFTLTGGNVFEYGVKAVYTCNEGYQLLGEINYRECDTDGWTNDIPICEVVKCLPVTAPENGKIVSSAMEPDREYHFGQAVRFVCNSGYKIEGDEEMHCSDDGFWSKEKPKCVEISCKSPDVINGSPISQKIIYKENERFQYKCNMGYEYSERGDAVCTESGWRPLPSCEEKSGASGCDIPVFMNARTKNDFTWFKLNDTLDYECHDGYESNTGSTTGSIVCGYNGWSDLPICYERECELPKIDVHLVPDRKKDQYKVGEVLKFSCKPGFTIVGPNSVQCYHFGLSPDLPICKEQVQSCGPPPELLNGNVKEKTKEEYGHSEVVEYYCNPRFLMKGPNKIQCVDGEWTTLPVCIVEESTCGDIPELEHGWAQLSSPPYYYGDSVEFNCSESFTMIGHRSITCIHGVWTQLPQCVAIDKLKKCKSSNLIILEEHLKNKKEFDHNSNIRYRCRGKEGWIHTVCINGRWDPEVNCSMAQIQLCPPPPQIPNSHNMTTTLNYRDGEKVSVLCQENYLIQEGEEITCKDGRWQSIPLCVEKIPCSQPPQIEHGTINSSRSSQESYAHGTKLSYTCEGGFRISEENETTCYMGKWSSPPQCEGLPCKSPPEISHGVVAHMSDSYQYGEEVTYKCFEGFGIDGPAIAKCLGEKWSHPPSCIKTDCLSLPSFENAIPMGEKKDVYKAGEQVTYTCATYYKMDGASNVTCINSRWTGRPTCRDTSCVNPPTVQNAYIVSRQMSKYPSGERVRYQCRSPYEMFGDEEVMCLNGNWTEPPQCKDSTGKCGPPPPIDNGDITSFPLSVYAPASSVEYQCQNLYQLEGNKRITCRNGQWSEPPKCLHPCVISREIMENYNIALRWTAKQKLYSRTGESVEFVCKRGYRLSSRSHTLRTTCWDGKLEYPTCAKRGGSGHHHHHH
B3: pCEP4-1NT9-16CT20 (other)
chain: EDCNELPPRRNTEILTGSWSDQTYPEGTQAIYKCRPGYRSLGNVIMVCRKGEWVALNPLRKCQKRPCGHPGDTPFGTFTLTGGNVFEYGVKAVYTCNEGYQLLGEINYRECDTDGWTNDIPICEVVKCLPVTAPENGKIVSSAMEPDREYHFGQAVRFVCNSGYKIEGDEEMHCSDDGFWSKEKPKCVEISCKSPDVINGSPISQKIIYKENERFQYKCNMGYEYSERGDAVCTESGWRPLPSCEEKSCDNPYIPNGDYSPLRIKHRTGDEITYQCRNGFYPATRGNTAKCTSTGWIPAPRCTLKPCDYPDIKHGGLYHENMRRPYFPVAVGKYYSYYCDEHFETPSGSYWDHIHCTQDGWSPAVPCLRKCYFPYLENGYNQNYGRKFVQGKSIDVACHPGYALPKAQTTVTCMENGWSPTPRCIRVKTCSKSSIDIENGFISESQYTYALKEKAKYQCKLGYVTADGETSGSITCGKDGWSAQPTCIKSCDIPVFMNARTKNDFTWFKLNDTLDYECHDGYESNTGSTTGSIVCGYNGWSDLPICYEREGASGCKSPPEISHGVVAHMSDSYQYGEEVTYKCFEGFGIDGPAIAKCLGEKWSHPPSCIKTDCLSLPSFENAIPMGEKKDVYKAGEQVTYTCATYYKMDGASNVTCINSRWTGRPTCRDTSCVNPPTVQNAYIVSRQMSKYPSGERVRYQCRSPYEMFGDEEVMCLNGNWTEPPQCKDSTGKCGPPPPIDNGDITSFPLSVYAPASSVEYQCQNLYQLEGNKRITCRNGQWSEPPKCLHPCVISREIMENYNIALRWTAKQKLYSRTGESVEFVCKRGYRLSSRSHTLRTTCWDGKLEYPTCAKRGGSGHHHHHH
B4: pCEP4-1NT4-11CT20 (other)
chain: EDCNELPPRRNTEILTGSWSDQTYPEGTQAIYKCRPGYRSLGNVIMVCRKGEWVALNPLRKCQKRPCGHPGDTPFGTFTLTGGNVFEYGVKAVYTCNEGYQLLGEINYRECDTDGWTNDIPICEVVKCLPVTAPENGKIVSSAMEPDREYHFGQAVRFVCNSGYKIEGDEEMHCSDDGFWSKEKPKCVEISCKSPDVINGSPISQKIIYKENERFQYKCNMGYEYSERGDAVCTESGWRPLPSCEEKSGASGCGPPPELLNGNVKEKTKEEYGHSEVVEYYCNPRFLMKGPNKIQCVDGEWTTLPVCIVEESTCGDIPELEHGWAQLSSPPYYYGDSVEFNCSESFTMIGHRSITCIHGVWTQLPQCVAIDKLKKCKSSNLIILEEHLKNKKEFDHNSNIRYRCRGKEGWIHTVCINGRWDPEVNCSMAQIQLCPPPPQIPNSHNMTTTLNYRDGEKVSVLCQENYLIQEGEEITCKDGRWQSIPLCVEKIPCSQPPQIEHGTINSSRSSQESYAHGTKLSYTCEGGFRISEENETTCYMGKWSSPPQCEGLPCKSPPEISHGVVAHMSDSYQYGEEVTYKCFEGFGIDGPAIAKCLGEKWSHPPSCIKTDCLSLPSFENAIPMGEKKDVYKAGEQVTYTCATYYKMDGASNVTCINSRWTGRPTCRDTSCVNPPTVQNAYIVSRQMSKYPSGERVRYQCRSPYEMFGDEEVMCLNGNWTEPPQCKDSTGKCGPPPPIDNGDITSFPLSVYAPASSVEYQCQNLYQLEGNKRITCRNGQWSEPPKCLHPCVISREIMENYNIALRWTAKQKLYSRTGESVEFVCKRGYRLSSRSHTLRTTCWDGKLEYPTCAKRGGSGHHHHHH
B5: pCEP4-1NT7-11CT20 (other)
chain: EDCNELPPRRNTEILTGSWSDQTYPEGTQAIYKCRPGYRSLGNVIMVCRKGEWVALNPLRKCQKRPCGHPGDTPFGTFTLTGGNVFEYGVKAVYTCNEGYQLLGEINYRECDTDGWTNDIPICEVVKCLPVTAPENGKIVSSAMEPDREYHFGQAVRFVCNSGYKIEGDEEMHCSDDGFWSKEKPKCVEISCKSPDVINGSPISQKIIYKENERFQYKCNMGYEYSERGDAVCTESGWRPLPSCEEKSCDNPYIPNGDYSPLRIKHRTGDEITYQCRNGFYPATRGNTAKCTSTGWIPAPRCTLKPCDYPDIKHGGLYHENMRRPYFPVAVGKYYSYYCDEHFETPSGSYWDHIHCTQDGWSPAVPCLRKCYFPYLENGYNQNYGRKFVQGKSIDVACHPGYALPKAQTTVTCMENGWSPTPRCIRVKTGASGCGPPPELLNGNVKEKTKEEYGHSEVVEYYCNPRFLMKGPNKIQCVDGEWTTLPVCIVEESTCGDIPELEHGWAQLSSPPYYYGDSVEFNCSESFTMIGHRSITCIHGVWTQLPQCVAIDKLKKCKSSNLIILEEHLKNKKEFDHNSNIRYRCRGKEGWIHTVCINGRWDPEVNCSMAQIQLCPPPPQIPNSHNMTTTLNYRDGEKVSVLCQENYLIQEGEEITCKDGRWQSIPLCVEKIPCSQPPQIEHGTINSSRSSQESYAHGTKLSYTCEGGFRISEENETTCYMGKWSSPPQCEGLPCKSPPEISHGVVAHMSDSYQYGEEVTYKCFEGFGIDGPAIAKCLGEKWSHPPSCIKTDCLSLPSFENAIPMGEKKDVYKAGEQVTYTCATYYKMDGASNVTCINSRWTGRPTCRDTSCVNPPTVQNAYIVSRQMSKYPSGERVRYQCRSPYEMFGDEEVMCLNGNWTEPPQCKDSTGKCGPPPPIDNGDITSFPLSVYAPASSVEYQCQNLYQLEGNKRITCRNGQWSEPPKCLHPCVISREIMENYNIALRWTAKQKLYSRTGESVEFVCKRGYRLSSRSHTLRTTCWDGKLEYPTCAKRGGSGHHHHHH
B6: pCEP4-1NT8-16CT20 (other)
chain: EDCNELPPRRNTEILTGSWSDQTYPEGTQAIYKCRPGYRSLGNVIMVCRKGEWVALNPLRKCQKRPCGHPGDTPFGTFTLTGGNVFEYGVKAVYTCNEGYQLLGEINYRECDTDGWTNDIPICEVVKCLPVTAPENGKIVSSAMEPDREYHFGQAVRFVCNSGYKIEGDEEMHCSDDGFWSKEKPKCVEISCKSPDVINGSPISQKIIYKENERFQYKCNMGYEYSERGDAVCTESGWRPLPSCEEKSCDNPYIPNGDYSPLRIKHRTGDEITYQCRNGFYPATRGNTAKCTSTGWIPAPRCTLKPCDYPDIKHGGLYHENMRRPYFPVAVGKYYSYYCDEHFETPSGSYWDHIHCTQDGWSPAVPCLRKCYFPYLENGYNQNYGRKFVQGKSIDVACHPGYALPKAQTTVTCMENGWSPTPRCIRVKTCSKSSIDIENGFISESQYTYALKEKAKYQCKLGYVTADGETSGSITCGKDGWSAQPTCIKSGASGCKSPPEISHGVVAHMSDSYQYGEEVTYKCFEGFGIDGPAIAKCLGEKWSHPPSCIKTDCLSLPSFENAIPMGEKKDVYKAGEQVTYTCATYYKMDGASNVTCINSRWTGRPTCRDTSCVNPPTVQNAYIVSRQMSKYPSGERVRYQCRSPYEMFGDEEVMCLNGNWTEPPQCKDSTGKCGPPPPIDNGDITSFPLSVYAPASSVEYQCQNLYQLEGNKRITCRNGQWSEPPKCLHPCVISREIMENYNIALRWTAKQKLYSRTGESVEFVCKRGYRLSSRSHTLRTTCWDGKLEYPTCAKRGGSGHHHHHH

Biological target: C3 convertase complex (UniProt P01024 23-1663; P00751 260-764)
Assay: cell-based or functional assay
Throughout, for C3 convertase activity % of the control: test concentration or dose not given here.

Sequence of C3 convertase complex (P01024 23-1663, chain 1 of 2): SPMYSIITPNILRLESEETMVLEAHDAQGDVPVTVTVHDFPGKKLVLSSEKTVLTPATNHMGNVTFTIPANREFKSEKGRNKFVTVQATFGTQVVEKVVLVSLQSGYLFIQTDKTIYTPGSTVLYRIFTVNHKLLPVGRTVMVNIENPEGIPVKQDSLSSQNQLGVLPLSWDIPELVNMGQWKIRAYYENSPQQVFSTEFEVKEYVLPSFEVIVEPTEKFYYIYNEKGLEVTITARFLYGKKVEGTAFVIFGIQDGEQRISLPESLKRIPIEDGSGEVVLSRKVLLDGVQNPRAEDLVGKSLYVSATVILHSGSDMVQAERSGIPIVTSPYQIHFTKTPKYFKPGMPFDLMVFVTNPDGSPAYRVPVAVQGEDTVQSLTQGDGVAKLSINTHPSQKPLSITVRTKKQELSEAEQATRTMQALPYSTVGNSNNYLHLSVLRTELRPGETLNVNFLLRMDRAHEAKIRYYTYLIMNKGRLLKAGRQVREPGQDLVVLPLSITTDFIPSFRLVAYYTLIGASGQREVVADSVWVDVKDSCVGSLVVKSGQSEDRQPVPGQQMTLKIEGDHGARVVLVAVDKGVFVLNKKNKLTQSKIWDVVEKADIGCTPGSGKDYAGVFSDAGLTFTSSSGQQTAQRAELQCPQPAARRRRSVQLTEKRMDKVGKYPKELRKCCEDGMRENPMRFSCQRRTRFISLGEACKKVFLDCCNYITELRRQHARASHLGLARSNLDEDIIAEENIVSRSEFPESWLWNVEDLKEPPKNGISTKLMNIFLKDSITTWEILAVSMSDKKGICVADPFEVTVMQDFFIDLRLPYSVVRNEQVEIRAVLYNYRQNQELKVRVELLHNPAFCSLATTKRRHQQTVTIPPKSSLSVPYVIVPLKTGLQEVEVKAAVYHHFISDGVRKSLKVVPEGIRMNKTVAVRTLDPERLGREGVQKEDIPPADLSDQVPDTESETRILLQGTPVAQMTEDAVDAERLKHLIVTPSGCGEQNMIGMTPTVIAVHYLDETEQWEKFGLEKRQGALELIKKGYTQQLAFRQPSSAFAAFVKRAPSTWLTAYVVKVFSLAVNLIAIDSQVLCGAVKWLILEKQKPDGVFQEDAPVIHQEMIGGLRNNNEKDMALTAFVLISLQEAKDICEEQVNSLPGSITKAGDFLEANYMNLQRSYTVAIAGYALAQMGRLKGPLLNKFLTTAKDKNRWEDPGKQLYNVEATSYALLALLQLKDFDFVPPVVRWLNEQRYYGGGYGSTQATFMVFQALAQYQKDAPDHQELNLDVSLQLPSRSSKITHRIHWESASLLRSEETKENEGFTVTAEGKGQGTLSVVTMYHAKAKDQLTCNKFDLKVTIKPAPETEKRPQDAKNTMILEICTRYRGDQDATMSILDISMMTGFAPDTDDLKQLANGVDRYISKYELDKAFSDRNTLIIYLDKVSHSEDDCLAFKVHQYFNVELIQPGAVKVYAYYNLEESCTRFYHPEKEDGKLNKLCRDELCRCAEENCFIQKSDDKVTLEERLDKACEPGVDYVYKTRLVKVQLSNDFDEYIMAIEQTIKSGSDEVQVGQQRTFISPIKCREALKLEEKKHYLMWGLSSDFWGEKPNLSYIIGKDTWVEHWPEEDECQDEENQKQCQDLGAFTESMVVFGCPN
Sequence of C3 convertase complex (P00751 260-764, chain 2 of 2): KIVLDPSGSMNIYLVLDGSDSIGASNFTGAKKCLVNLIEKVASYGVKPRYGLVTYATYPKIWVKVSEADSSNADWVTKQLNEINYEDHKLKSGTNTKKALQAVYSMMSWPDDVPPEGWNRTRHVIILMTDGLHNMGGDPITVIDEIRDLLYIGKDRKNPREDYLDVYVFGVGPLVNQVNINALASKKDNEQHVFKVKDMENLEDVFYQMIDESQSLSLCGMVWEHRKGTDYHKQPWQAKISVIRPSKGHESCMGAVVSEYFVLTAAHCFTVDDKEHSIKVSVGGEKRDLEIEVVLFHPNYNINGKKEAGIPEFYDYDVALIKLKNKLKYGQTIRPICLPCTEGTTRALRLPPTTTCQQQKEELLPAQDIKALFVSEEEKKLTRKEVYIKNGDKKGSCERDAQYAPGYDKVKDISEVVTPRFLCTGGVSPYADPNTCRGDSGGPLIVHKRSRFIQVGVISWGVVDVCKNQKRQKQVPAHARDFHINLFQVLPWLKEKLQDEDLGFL

Row | Binder | C3 convertase activity % of the control | C3 convertase activity IC50 [µg/mL]
1 | B1 | 27 % of the control | 0.489
2 | B2 | 18 % of the control | 0.536
3 | B3 | 25 % of the control | 0.418
4 | B4 | 17 % of the control | 0.546
5 | B5 | 134 % of the control | 0.265
6 | B6 | 25 % of the control | 0.426

— patent publication US20170190753A1 (LABORATOIRE FRANCAIS DU FRACTIONNEMENT ET DES …, published 2017)
